Assay results as given in the nanobody polyreactivity screen of Harvey et al. (2022).

Test: yeast display, Sf9 membrane polyspecificity reagent, FACS + sequencing; frameworks hold sequencing errors
Method in brief: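 Galactose induction of a Saccharomyces cerevisiae BJ5465 synthetic nanobody display library ran 36–48 hours. The cells were then stained for 1 hour at 4 °C with 10% biotinylated, detergent-solubilized Sf9 membrane reagent, pulled down on streptavidin microbeads and FACS-sorted into low and high (top ~1%) gates on expression and reagent-binding fluorescence. Labels for polyreactivity follow the gate of origin.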

| Sequence | polyreactivity (PSR sort gate) |
| --- | --- |
| QVQLVESGGGLVQAGGSLRLSCAASGRIFSSNGMGWYRQAPGKERELVAAIRTDGGSTYYADSVKGRFTISRDNAKNTVYLQMNSLKPEDTAVYYCNAQGAYTDVFDVYQRQPDDYWGQGTQVTVSS | low polyreactivity |
| QVQLVESGGGLVQAGGSLRLSCAASGITIYKYAMGWYRQAPGKERELVAAITRGGSTNYADSVKGRFTISRDNAKNTVYLQMNSLKPEDTAVYYCNKVYHWQSPGFGYGYWGQGSQVTVSS | high polyreactivity |
| QVQLVESGGGLVQAGGSLRLSCAASGRTIAPYAMGSYRQAPGKERELVAAITYSGGSTYYADSVKGRFTISRDNAKNTVYLQMNSLKPEDTAVYYCAVDTTTSYTVEYDYWGQGTQVTVSS | low polyreactivity |
| QEQLQESRGGLVQAGGSLRMTCAASGYNYLAHTIGWYRQAPGKELEFVASIALGSSTYYTDSVKGSFTISRDNAKTTVYLQKNSQKPEDTAVYYCAARVGASYAHDYWGQGTQVTVSS | low polyreactivity |
| QVQLVESGGGLVQAGGSLRLTCAASGRTFDYNAMGWYIQAPGKERELVAAISQSGGRTYYADSVKGRFTISRDHAKNTVYLQMNSLKPEDTAVYYCAAEAYGNRDYWGQGTQVTVSS | low polyreactivity |
| QVQLVESGGGLVQAGGSLRLSCAASGRTFPGNAMGWYRQAPGKERELVAAISYSGGRTYYSDSVKGRFTISRDNAKNTVYLQMNRLKPEDTAVYYCAKSIVQPSVAAYYYWGQGTQVTVSS | high polyreactivity |
| QVQLVESGGGLVQAGGSLRLSCAASGSIFEPNAMGWYRQAPGTERELVAAISWNDGDTYYADSVKGRFTISRDNAKNTVYFQMNSLKPEDPAVYYCAAAISLYSYDYWGQGTQVTVSS | low polyreactivity |
| QVQLVESGGGIVQAGGSLRLSCAASGIIFDINSMGWYRQAPGKERELVAAITTSVDSTYYAHSVKGRFTISRDNAKNTVYLQMYSLQPEDTAVYYCSVSFVQFTQYDYWGQGTQVTVSS | low polyreactivity |
| QVQLVESGGGLVQAGGSLRLSCAASGITFRYNAMGWYRQAPGKERELVAAISYSGGSTYYADSVKGRFTISRDNAKNTVYLQMNSLKPEDTAVYYCAARIYSYPRGQYDYWGQGTQVTVSS | low polyreactivity |
| QVQLVESGGGLVQAGGSLRLSCAASGRTFIYNTMGWYRQAPGKERELVAAITSGGSTNYADSVKGRFTISRDNAKNTVYLQMNSLKPEDTAVYYCATQGLSAPFDGFVNSRFDHWGQGTQVTVSS | low polyreactivity |
| QVQLVESGGGLVQAGGSLRLSCAASGSIIKWNAMGWDRKAPGQEREFVASITRSGGSTYYADSVKGRITISRDNAKNTVYLQMNSRKPEDTAVFYCARSYGWYRWAGYDYWGKGTQVTVSS | high polyreactivity |
| QVQLLESGVGLVQAGGSLRLSCAASGFSFGAYTLGWYRQAPRKERELVAAIRGSGGSTYYADSVKGRFTISRDNAKNTVYFQINSLKPDDTAVYYCAKTLTYGFRRYDYWGQGTQVTVSS | high polyreactivity |
| QVQLVESGGGLVQAGGSLRLSCAASGRIFSPNAMGWYRQAPGKERELVAVSSWRGVSTYFADSVKGRFTISRDNAKNTVYLQMNSLKPEDTAVYYCAVDNKSVYYWRQYYYWGQGTQVTVSS | high polyreactivity |
| QVQLVESGGGLVQAGGSLRLSCAASGRTFVANAMGWYRQAPGKERELVAAISSSGGSTYYADSVKGRFTISRDNAKNTVYLQMNSLKPEDTAVYYCNRVGVYYRLYPYYYWGQGTQVTVSS | high polyreactivity |
| QVQLVESGGGLVQAGGSLRLSCAASGIIFRLNAMGWYRQAPGKERELVAAMRRRGGSTYYADSVKGRFTISRDNAKNTVYLQMNSLKPEDTAVYYCAKDPVTTFYKYDYWGQGTQVTVSS | low polyreactivity |
| QVQLVESGGGLVQAGGSLRLSCAASGSIFSYNGKGWYRQAPGKERELVATISASSVTTYYADSVKGRFTISRDNAKNTVYLQMNSLKPEDTAVYYCARDAYSVYYYVFLHWEYDYWGQGTQVTVSS | high polyreactivity |
| QVQLVESGGGLVQAGGSLRLSCAASGSTLVSYAMGWYRQSPGKERELVATISWRGGSTYYADSVKGRFTISRDNAKNTVYLQMNSLKPEDTAVYYCAADLWHSQYYYGYEYWGQGTQVTVSS | low polyreactivity |
